Test results published in paper PMC2408645.
Like-named read-outs stand apart in the source and are kept apart here.

Experiments:
Experiment in all cases: two-hybrid
[1] = target: KpsC (E. coli K1 (strain EV36)) (UniProt P42217)
[2] = target: NeuS (E. coli K1 (strain EV36))
[3] = target: KpsC (E. coli K1 (strain EV36)) (UniProt P42217); remark: listed apart in the source
[4] = target: NeuS (E. coli K1 (strain EV36)); remark: listed apart in the source

| Substance | beta-galactosidase activity, early [1] [Miller units] | beta-galactosidase activity, late [1] [Miller units] | beta-galactosidase activity, early [2] [Miller units] | beta-galactosidase activity, late [2] [Miller units] | beta-galactosidase activity, early [3] [Miller units] | beta-galactosidase activity, late [3] [Miller units] | beta-galactosidase activity, early [4] [Miller units] | beta-galactosidase activity, late [4] [Miller units] |
| --- | --- | --- | --- | --- | --- | --- | --- | --- |
| KpsC (from UniProt P42217 1-675) (natural protein) | 200 | 760 | 420 | 5540 | 220 | 540 | 560 | 4700 |
| KpsE (natural protein) | 230 | 1170 | 140 | 1050 | 65 | 120 | – | – |
| NeuE (natural protein) | – | – | 16 | – | – | – | 17 | – |
| NeuS (enzyme) | 15 | – | – | – | 18 | – | – | – |
